PMC12069319, “Transcriptional co-regulator OCA-B/Pou2af1 restricts Th2 differentiation”

B1: RHS5_12-Cy5 (dsDNA)
DNA 1: TCGAGAAGCGCTGATTAGCATCTGTCATTA
DNA 2: TAATGACAGATGCTAATCAGCGCTTCTCGA
B2: RHS6-Cy5 (dsDNA)
DNA 1: CACCATGCAAAGGATGTGCGCGGACTCCCTTCCATTTGCTGGCCTCTTATCTGATA
DNA 2: TATCAGATAAGAGGCCAGCAAATGGAAGGGAGTCCGCGCACATCCTTTGCATGGTG

Target: Oct1 DNA binding domain (Oct1-DBD) (human (from pBabe-hOct1), UniProt P14859 280-438)
Assay: EMSA; EMSA: 0.6X buffer D (1X: 20 mM HEPES, 100 mM KCl, 1 mM DTT), 50 ng/ul poly-dI/dC, 1 ug/ul BSA, on ice 15 min, 6% native PAGE in 0.5X TBE; probe 50 nM (1 nM for)
Conditions: protein: recombinant; tags: His (pET28a); blunt

Oct1 DNA binding domain (Oct1-DBD), sequence (P14859 280-438): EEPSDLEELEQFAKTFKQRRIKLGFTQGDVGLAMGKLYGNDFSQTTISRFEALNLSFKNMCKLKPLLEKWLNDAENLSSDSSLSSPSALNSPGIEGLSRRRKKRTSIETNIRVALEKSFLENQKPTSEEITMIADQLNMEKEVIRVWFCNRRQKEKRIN

Binder | binding result
B1 | binds
B2 | binds
